In patent US20230357362A1:

Experiments:
[1] = target: ATP synthase subunit beta, mitochondrial OS = Homo (name cut off as printed) (Homo sapiens) (UniProt P06576); assay: IP with isotype IgG control from SW480 lysate, LC-MS (negative control)
[2] = target: Tubulin beta chain OS = Homo sapiens GN = TUBB PE = 1 (Homo sapiens) (UniProt P07437); assay: as above
[3] = target: 40S ribosomal protein S3 OS = Homo sapiens GN = RPS3 (Homo sapiens) (UniProt P23396); assay: as above
[4] = target: Heat shock protein HSP 90-alpha OS = Homo sapiens (Homo sapiens) (UniProt P07900); assay: as above
[5] = target: Myosin-9 OS = Homo sapiens GN = MYH9 PE = 1 SV = 4 (Homo sapiens) (UniProt P35579); assay: as above
[6] = target: Desmoplakin OS = Homo sapiens GN = DSP PE = 1 SV = 3 (Homo sapiens) (UniProt P15924); assay: as above
[7] = target: Isoform 2 of 40S ribosomal protein S20 OS = Homo (name cut off as printed) (Homo sapiens) (UniProt P60866); assay: as above
[8] = target: Histone H4 OS = Homo sapiens GN = HIST1H4A PE = 1 (Homo sapiens) (UniProt P62805); assay: as above
[9] = target: ADP/ATP translocase 3 OS = Homo sapiens GN = SLC25A6 (Homo sapiens) (UniProt P12236); assay: as above
[10] = target: Isoform 2 of Glyceraldehyde-3-phosphate (name cut off as printed) (UniProt P04406); assay: as above
[11] = target: 40S ribosomal protein S15a OS = Homo sapiens (Homo sapiens) (UniProt P62244); assay: as above
[12] = target: DNA-dependent protein kinase catalytic subunit (UniProt P78527); assay: as above
[13] = target: Junction plakoglobin OS = Homo sapiens GN = JUP PE = 1 (Homo sapiens) (UniProt P14923); assay: as above
[14] = target: endogenous fibronectin of human CRC cells (Isoform 10 of Fibronectin OS = Homo sapiens GN = FN1) (Homo sapiens) (UniProt P02751); assay: as above
[15] = target: Tubulin beta-4B chain OS = Homo sapiens GN = TUBB4B (Homo sapiens) (UniProt P68371); assay: as above
[16] = target: Cytoplasmic dynein 1 heavy chain 1 OS = Homo sapiens (Homo sapiens) (UniProt Q14204); assay: as above
[17] = target: Heat shock protein beta-1 OS = Homo sapiens (Homo sapiens) (UniProt P04792); assay: as above
[18] = target: Isoform 2 of Plectin OS = Homo sapiens GN = PLEC (Homo sapiens) (UniProt Q15149); assay: as above
[19] = target: Heat shock cognate 71 kDa protein OS = Homo sapiens (Homo sapiens) (UniProt P11142); assay: as above
[20] = target: Isoform 2 of Annexin A2 OS = Homo sapiens GN = ANXA2 (Homo sapiens) (UniProt P07355); assay: as above
[21] = target: Isoform 2 of ATP synthase subunit alpha, mitochondrial (UniProt P25705); assay: as above
[22] = target: ATP synthase subunit beta, mitochondrial OS = Homo (name cut off as printed) (Homo sapiens) (UniProt P06576); assay: co-IP with M53 from SW480 lysate, LC-MS
[23] = target: Tubulin beta chain OS = Homo sapiens GN = TUBB PE = 1 (Homo sapiens) (UniProt P07437); assay: co-IP with M53 from SW480 lysate, LC-MS
[24] = target: 40S ribosomal protein S3 OS = Homo sapiens GN = RPS3 (Homo sapiens) (UniProt P23396); assay: co-IP with M53 from SW480 lysate, LC-MS
[25] = target: Heat shock protein HSP 90-alpha OS = Homo sapiens (Homo sapiens) (UniProt P07900); assay: co-IP with M53 from SW480 lysate, LC-MS
[26] = target: Myosin-9 OS = Homo sapiens GN = MYH9 PE = 1 SV = 4 (Homo sapiens) (UniProt P35579); assay: co-IP with M53 from SW480 lysate, LC-MS
[27] = target: Desmoplakin OS = Homo sapiens GN = DSP PE = 1 SV = 3 (Homo sapiens) (UniProt P15924); assay: co-IP with M53 from SW480 lysate, LC-MS
[28] = target: Isoform 2 of 40S ribosomal protein S20 OS = Homo (name cut off as printed) (Homo sapiens) (UniProt P60866); assay: co-IP with M53 from SW480 lysate, LC-MS
[29] = target: Histone H4 OS = Homo sapiens GN = HIST1H4A PE = 1 (Homo sapiens) (UniProt P62805); assay: co-IP with M53 from SW480 lysate, LC-MS
[30] = target: ADP/ATP translocase 3 OS = Homo sapiens GN = SLC25A6 (Homo sapiens) (UniProt P12236); assay: co-IP with M53 from SW480 lysate, LC-MS
[31] = target: Isoform 2 of Glyceraldehyde-3-phosphate (name cut off as printed) (UniProt P04406); assay: co-IP with M53 from SW480 lysate, LC-MS
[32] = target: 40S ribosomal protein S15a OS = Homo sapiens (Homo sapiens) (UniProt P62244); assay: co-IP with M53 from SW480 lysate, LC-MS
[33] = target: DNA-dependent protein kinase catalytic subunit (UniProt P78527); assay: co-IP with M53 from SW480 lysate, LC-MS
[34] = target: Junction plakoglobin OS = Homo sapiens GN = JUP PE = 1 (Homo sapiens) (UniProt P14923); assay: co-IP with M53 from SW480 lysate, LC-MS
[35] = target: Tubulin beta-4B chain OS = Homo sapiens GN = TUBB4B (Homo sapiens) (UniProt P68371); assay: co-IP with M53 from SW480 lysate, LC-MS
[36] = target: Cytoplasmic dynein 1 heavy chain 1 OS = Homo sapiens (Homo sapiens) (UniProt Q14204); assay: co-IP with M53 from SW480 lysate, LC-MS
[37] = target: Heat shock protein beta-1 OS = Homo sapiens (Homo sapiens) (UniProt P04792); assay: co-IP with M53 from SW480 lysate, LC-MS
[38] = target: Isoform 2 of Plectin OS = Homo sapiens GN = PLEC (Homo sapiens) (UniProt Q15149); assay: co-IP with M53 from SW480 lysate, LC-MS
[39] = target: Heat shock cognate 71 kDa protein OS = Homo sapiens (Homo sapiens) (UniProt P11142); assay: co-IP with M53 from SW480 lysate, LC-MS
[40] = target: Isoform 2 of Annexin A2 OS = Homo sapiens GN = ANXA2 (Homo sapiens) (UniProt P07355); assay: co-IP with M53 from SW480 lysate, LC-MS
[41] = target: Isoform 2 of ATP synthase subunit alpha, mitochondrial (UniProt P25705); assay: co-IP with M53 from SW480 lysate, LC-MS

Sequence of dysadherin (FXYD5) as expressed in human CRC cells (endogenous in SW480 cells; overexpressed in HCT116 cells) (Q96DB9 22-178): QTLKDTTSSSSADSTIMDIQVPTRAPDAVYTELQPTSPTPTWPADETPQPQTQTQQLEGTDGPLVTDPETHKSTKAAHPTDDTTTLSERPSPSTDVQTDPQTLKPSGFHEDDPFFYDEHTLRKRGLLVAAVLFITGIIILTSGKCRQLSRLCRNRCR
Sequence of ATP synthase subunit beta, mitochondrial OS = Homo (name cut off as printed) (Homo sapiens) (P06576 48-529 limits assumed): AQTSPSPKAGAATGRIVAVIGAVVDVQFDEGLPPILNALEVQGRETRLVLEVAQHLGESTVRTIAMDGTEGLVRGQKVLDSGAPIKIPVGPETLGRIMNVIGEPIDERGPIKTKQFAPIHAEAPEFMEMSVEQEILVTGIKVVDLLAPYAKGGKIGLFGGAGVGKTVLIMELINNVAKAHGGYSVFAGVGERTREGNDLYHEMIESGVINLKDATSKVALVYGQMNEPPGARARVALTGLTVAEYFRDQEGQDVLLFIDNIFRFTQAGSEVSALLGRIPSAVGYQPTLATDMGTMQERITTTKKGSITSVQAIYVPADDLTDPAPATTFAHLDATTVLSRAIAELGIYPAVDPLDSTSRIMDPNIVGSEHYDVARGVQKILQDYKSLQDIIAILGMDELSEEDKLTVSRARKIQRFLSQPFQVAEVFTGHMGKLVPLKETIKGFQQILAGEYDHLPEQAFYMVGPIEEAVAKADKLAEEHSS
Sequence of Heat shock protein beta-1 OS = Homo sapiens (Homo sapiens) (P04792 whole entry, canonical isoform): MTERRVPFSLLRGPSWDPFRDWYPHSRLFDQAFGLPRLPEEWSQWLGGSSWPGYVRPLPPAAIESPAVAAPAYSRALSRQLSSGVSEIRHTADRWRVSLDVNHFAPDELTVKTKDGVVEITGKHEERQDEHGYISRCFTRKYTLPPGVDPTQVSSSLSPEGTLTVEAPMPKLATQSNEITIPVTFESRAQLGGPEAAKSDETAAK
Sequence of Junction plakoglobin OS = Homo sapiens GN = JUP PE = 1 (Homo sapiens) (P14923 whole entry, canonical isoform): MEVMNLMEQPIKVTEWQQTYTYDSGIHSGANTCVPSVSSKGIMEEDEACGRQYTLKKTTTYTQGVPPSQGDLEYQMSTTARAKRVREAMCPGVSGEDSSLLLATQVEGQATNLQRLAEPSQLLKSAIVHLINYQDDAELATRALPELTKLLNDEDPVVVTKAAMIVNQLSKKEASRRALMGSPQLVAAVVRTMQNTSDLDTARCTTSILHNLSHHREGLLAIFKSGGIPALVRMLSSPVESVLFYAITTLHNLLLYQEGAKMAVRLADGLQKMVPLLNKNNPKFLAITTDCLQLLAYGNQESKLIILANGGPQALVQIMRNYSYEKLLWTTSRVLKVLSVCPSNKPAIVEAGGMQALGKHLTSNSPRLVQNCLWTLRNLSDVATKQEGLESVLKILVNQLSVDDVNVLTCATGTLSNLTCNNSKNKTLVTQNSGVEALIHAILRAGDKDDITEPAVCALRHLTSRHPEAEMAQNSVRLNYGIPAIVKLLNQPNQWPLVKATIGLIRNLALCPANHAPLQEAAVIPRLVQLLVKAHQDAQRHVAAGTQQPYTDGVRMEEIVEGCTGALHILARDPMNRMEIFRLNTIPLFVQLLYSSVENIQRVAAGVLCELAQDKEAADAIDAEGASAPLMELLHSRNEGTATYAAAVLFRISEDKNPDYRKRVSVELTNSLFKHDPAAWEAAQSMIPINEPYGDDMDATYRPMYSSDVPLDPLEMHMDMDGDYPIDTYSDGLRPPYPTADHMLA
Sequence of Myosin-9 OS = Homo sapiens GN = MYH9 PE = 1 SV = 4 (Homo sapiens) (P35579 2-1960 limits assumed): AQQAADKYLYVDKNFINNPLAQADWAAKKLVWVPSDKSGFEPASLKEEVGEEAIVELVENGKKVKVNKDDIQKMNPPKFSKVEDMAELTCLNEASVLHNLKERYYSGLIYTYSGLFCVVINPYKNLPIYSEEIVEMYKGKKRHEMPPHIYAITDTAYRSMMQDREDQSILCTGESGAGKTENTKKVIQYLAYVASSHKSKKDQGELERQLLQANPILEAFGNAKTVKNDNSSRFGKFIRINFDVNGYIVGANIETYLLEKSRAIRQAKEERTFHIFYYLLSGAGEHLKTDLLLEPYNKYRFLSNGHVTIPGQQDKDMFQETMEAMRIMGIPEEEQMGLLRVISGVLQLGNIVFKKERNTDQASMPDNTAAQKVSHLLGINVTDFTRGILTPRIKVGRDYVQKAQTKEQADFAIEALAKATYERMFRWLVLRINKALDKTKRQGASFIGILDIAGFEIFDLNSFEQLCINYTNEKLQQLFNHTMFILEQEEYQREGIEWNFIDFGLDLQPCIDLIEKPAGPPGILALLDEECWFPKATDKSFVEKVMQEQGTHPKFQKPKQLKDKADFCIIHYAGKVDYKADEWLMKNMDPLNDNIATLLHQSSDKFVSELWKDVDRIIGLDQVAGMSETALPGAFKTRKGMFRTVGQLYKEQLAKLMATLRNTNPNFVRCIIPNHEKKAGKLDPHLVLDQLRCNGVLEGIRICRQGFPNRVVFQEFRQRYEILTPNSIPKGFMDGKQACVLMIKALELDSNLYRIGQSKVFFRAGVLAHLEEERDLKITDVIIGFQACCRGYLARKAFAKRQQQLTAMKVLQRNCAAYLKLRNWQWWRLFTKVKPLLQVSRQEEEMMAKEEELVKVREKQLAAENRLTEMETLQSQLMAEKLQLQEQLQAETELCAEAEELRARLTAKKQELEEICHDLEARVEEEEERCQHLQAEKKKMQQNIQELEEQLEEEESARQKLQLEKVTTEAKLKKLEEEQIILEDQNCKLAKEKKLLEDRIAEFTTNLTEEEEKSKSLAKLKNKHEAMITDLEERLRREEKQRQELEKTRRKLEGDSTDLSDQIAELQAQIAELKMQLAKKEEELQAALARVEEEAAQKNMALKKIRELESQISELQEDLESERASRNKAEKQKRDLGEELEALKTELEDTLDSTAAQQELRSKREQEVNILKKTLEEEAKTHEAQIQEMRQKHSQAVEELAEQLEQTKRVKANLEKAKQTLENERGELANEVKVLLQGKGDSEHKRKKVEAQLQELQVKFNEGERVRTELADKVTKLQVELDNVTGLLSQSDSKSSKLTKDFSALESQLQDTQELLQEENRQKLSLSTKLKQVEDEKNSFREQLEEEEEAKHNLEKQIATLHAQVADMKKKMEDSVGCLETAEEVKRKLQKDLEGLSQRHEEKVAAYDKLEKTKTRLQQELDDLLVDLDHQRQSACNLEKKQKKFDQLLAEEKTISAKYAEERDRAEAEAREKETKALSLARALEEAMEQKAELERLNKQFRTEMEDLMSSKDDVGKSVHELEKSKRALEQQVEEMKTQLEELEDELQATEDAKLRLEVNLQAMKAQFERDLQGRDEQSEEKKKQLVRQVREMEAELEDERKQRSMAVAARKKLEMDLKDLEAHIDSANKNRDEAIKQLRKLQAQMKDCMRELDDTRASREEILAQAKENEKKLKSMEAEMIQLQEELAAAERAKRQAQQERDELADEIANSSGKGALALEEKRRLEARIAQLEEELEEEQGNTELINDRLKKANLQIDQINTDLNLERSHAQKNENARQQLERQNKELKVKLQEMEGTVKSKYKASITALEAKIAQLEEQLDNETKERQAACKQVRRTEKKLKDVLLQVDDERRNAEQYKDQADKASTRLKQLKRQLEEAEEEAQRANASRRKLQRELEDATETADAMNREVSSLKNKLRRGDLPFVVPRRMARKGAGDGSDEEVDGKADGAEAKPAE
Sequence of Isoform 2 of Annexin A2 OS = Homo sapiens GN = ANXA2 (Homo sapiens) (P07355 other isoform, or with tags, fused parts or gaps limits assumed): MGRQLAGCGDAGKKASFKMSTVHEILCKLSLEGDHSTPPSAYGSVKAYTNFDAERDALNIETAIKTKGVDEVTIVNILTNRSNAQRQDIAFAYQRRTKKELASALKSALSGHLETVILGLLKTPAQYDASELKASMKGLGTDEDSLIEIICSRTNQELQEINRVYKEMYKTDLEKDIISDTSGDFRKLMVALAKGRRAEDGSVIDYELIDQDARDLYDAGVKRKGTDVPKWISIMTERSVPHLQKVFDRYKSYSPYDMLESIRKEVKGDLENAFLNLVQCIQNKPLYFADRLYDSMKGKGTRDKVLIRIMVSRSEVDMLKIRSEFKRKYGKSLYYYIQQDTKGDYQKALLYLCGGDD
Sequence of Heat shock cognate 71 kDa protein OS = Homo sapiens (Homo sapiens) (P11142 2-646 limits assumed): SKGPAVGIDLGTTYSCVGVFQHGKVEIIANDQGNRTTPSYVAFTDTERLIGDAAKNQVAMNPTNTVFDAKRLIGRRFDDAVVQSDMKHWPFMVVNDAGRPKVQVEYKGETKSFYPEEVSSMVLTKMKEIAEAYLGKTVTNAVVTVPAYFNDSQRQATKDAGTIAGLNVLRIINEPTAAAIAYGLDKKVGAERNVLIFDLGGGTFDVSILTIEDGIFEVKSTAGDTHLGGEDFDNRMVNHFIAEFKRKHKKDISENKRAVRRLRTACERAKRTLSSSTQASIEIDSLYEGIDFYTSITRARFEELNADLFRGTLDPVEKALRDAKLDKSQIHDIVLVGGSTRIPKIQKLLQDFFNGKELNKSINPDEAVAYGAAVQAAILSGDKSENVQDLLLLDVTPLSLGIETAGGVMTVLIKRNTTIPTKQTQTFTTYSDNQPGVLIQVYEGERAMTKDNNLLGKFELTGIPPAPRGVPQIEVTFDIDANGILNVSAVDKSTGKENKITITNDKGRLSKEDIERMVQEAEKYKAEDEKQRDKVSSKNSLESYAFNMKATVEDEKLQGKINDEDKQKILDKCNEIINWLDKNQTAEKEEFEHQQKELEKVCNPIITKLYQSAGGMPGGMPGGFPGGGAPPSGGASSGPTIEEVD
Sequence of Tubulin beta-4B chain OS = Homo sapiens GN = TUBB4B (Homo sapiens) (P68371 whole entry): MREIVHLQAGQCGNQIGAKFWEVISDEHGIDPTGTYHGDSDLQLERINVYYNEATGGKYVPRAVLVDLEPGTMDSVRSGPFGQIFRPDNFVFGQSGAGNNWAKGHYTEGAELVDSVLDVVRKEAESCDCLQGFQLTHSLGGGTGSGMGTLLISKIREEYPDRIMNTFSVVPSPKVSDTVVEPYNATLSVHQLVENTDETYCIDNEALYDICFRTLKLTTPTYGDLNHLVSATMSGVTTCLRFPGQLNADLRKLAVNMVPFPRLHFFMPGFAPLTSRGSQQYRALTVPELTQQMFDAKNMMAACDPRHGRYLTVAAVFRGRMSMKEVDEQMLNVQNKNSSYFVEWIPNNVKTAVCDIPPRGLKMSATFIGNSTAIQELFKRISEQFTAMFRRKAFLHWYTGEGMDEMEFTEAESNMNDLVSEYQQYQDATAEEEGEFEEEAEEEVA

Substance: isotype IgG control antibody
- Probe identification probability [1]: 100%
- Probe identification probability [2]: 100%
- Probe identification probability [3]: 100%
- Probe identification probability [4]: 100%
- Probe identification probability [5]: 13%
- Probe identification probability [6]: 91%
- Probe identification probability [7]: 100%
- Probe identification probability [8]: 100%
- Probe identification probability [9]: 100%
- Probe identification probability [10]: 99%
- Probe identification probability [11]: 75%
- Probe identification probability [12]: 72%
- Probe identification probability [13]: 98%
- Probe identification probability [14]: 6%
- Probe identification probability [15]: 100%
- Probe identification probability [16]: 10%
- Probe identification probability [17]: 100%
- Probe identification probability [18]: 15%
- Probe identification probability [19]: 100%
- Probe identification probability [20]: 100%
- Probe identification probability [21]: 100%

Substance: dysadherin (FXYD5) as expressed in human CRC cells (endogenous in SW480 cells; overexpressed in HCT116 cells) (from UniProt Q96DB9 22-178)
- Probe identification probability [22]: 100%
- Probe identification probability [23]: 100%
- Probe identification probability [24]: 100%
- Probe identification probability [25]: 100%
- Probe identification probability [26]: 100%
- Probe identification probability [27]: 100%
- Probe identification probability [28]: 100%
- Probe identification probability [29]: 100%
- Probe identification probability [30]: 100%
- Probe identification probability [31]: 100%
- Probe identification probability [32]: 100%
- Probe identification probability [33]: 100%
- Probe identification probability [34]: 100%
- Probe identification probability [35]: 100%
- Probe identification probability [36]: 100%
- Probe identification probability [37]: 100%
- Probe identification probability [38]: 100%
- Probe identification probability [39]: 100%
- Probe identification probability [40]: 100%
- Probe identification probability [41]: 100%
